± gives the standard deviation.

The results in this text go back to the supplement of paper PMC10567573.

The nature of the data set: protein stability index of a GFP-peptide fusion (GPS, HEK-293T) (PSI 1-6); higher = more stable. The following applies: c terminus: a fixed tail appended.
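Note: 24-mer peptide tiles fused after GFP, lentivirally expressed, FACS-sorted into six equal bins by GFP/DsRed ratio, decoded by Illumina sequencing, PSI is the read-weighted mean bin number.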

Regarding LDFTHPKARDWFQGHLRRLRSRYS [MYORG], the protein stability index by setting is: (treatment: DMSO) 2.79 ± 0.39; (treatment: MLN4924 1 uM, 8 h) 2.97 ± 0.074.

On to PPRPPPRGTPPRRHSFRKHLYLLR [N4BP2L1], for which the protein stability index by setting is: (treatment: DMSO) 3.32 ± 0.35; (treatment: MLN4924 1 uM, 8 h) 3.56 ± 0.23.

As for IGCKKPVSASGKEMDWAQMACHRC [SMG5], the protein stability index reads like this: (treatment: DMSO) 3.04 ± 0.34; (treatment: MLN4924 1 uM, 8 h) 3.48 ± 0.28.

On to EMLGRKCLTLATAVVQLYLALPPG [WAS], for which the protein stability index by setting is: (treatment: DMSO) 3.02 ± 0.3; (treatment: MLN4924 1 uM, 8 h) 3.3 ± 0.55.

As for PAASNSSDLFDLMGSSQATMTSSQ [CLINT1], the protein stability index worked out at 5.06 ± 0.16 (treatment: DMSO) and 5.02 ± 0.17 (treatment: MLN4924 1 uM, 8 h).

The sequence QFVEGVRMEEIVEGCTGALHILAR [CTNNB1] registered a protein stability index (treatment: DMSO) of 3.12 ± 0.52 and a protein stability index (treatment: MLN4924 1 uM, 8 h) of 3.05 ± 0.64.

Consider HGEEEVETFAFQAEIAQLMSLIIN [HSP90AB1], for which the protein stability index turned out to be 2.58 ± 0.33 (treatment: DMSO) and 2.95 ± 0.28 (treatment: MLN4924 1 uM, 8 h).

For the sequence LVQLEDEITTLRQVLSAKERHLVE [TPD52L1], the protein stability index by setting is: (treatment: DMSO) 2.85 ± 0.16; (treatment: MLN4924 1 uM, 8 h) 3.04 ± 0.44.

For the sequence PNDEHWKALSRKSTSFRVYIMAFD [FBXO33], the protein stability index was 2.11 ± 0.52 (treatment: DMSO) and 2.27 ± 0.45 (treatment: MLN4924 1 uM, 8 h).

As for VRRTDDTPVVLVGNKSDLKQLRQV [RIT1], the protein stability index reads like this: (treatment: DMSO) 3.56 ± 0.26; (treatment: MLN4924 1 uM, 8 h) 3.6 ± 0.23.

With LVCTADGDIHLSPEEPAASTDPNI [TAF7L], the protein stability index (treatment: DMSO) worked out at 4.85 ± 0.2 and the protein stability index (treatment: MLN4924 1 uM, 8 h) turned out to be 4.89 ± 0.22.

For ALPSSAPSGPPPPPPSVLGVGPVA [WASL], the protein stability index is 4.54 ± 0.15 (treatment: DMSO) and 4.82 ± 0.25 (treatment: MLN4924 1 uM, 8 h).

Sequence PTMPALFSDHTFRHYAYLRDSLSH [INTS4] returned a protein stability index (treatment: DMSO) of 2.3 ± 0.14 and a protein stability index (treatment: MLN4924 1 uM, 8 h) of 2.31 ± 0.12.

In the case of ESEDCKLPSNPCATTNACEKPIGS [KRT33B], the protein stability index amounted to 5.48 ± 0.097 (treatment: DMSO) and 5.34 ± 0.18 (treatment: MLN4924 1 uM, 8 h).

In the case of SLEDLIFESLPENASHKLEVRLVP [ATE1], the protein stability index runs as follows: (treatment: DMSO) 2.79 ± 0.3; (treatment: MLN4924 1 uM, 8 h) 2.98 ± 0.3.

For IPPKSVNPTCMCCQATSSTACHIQ [FAM219A], the protein stability index (treatment: DMSO) came to 3.7 ± 0.17 and the protein stability index (treatment: MLN4924 1 uM, 8 h) turned out to be 3.82 ± 0.26.

LPVGTQLLTVTATDRDEGANGEVT [PCDHGA10]: the protein stability index runs as follows: (treatment: DMSO) 5.32 ± 0.37; (treatment: MLN4924 1 uM, 8 h) 5.4 ± 0.23.

Turning to FTGSQPTAERITQLSAPHCKKLSL [ALDH8A1], the protein stability index by setting is: (treatment: DMSO) 2.89 ± 0.5; (treatment: MLN4924 1 uM, 8 h) 3.46 ± 0.35.

PPETVQNWIELLSGETWNPLKLHY [GOLPH3] yielded a protein stability index (treatment: DMSO) of 2.17 ± 0.24 and a protein stability index (treatment: MLN4924 1 uM, 8 h) of 2.12 ± 0.21.

As to HFVDEHGKDQGINIRQKVKELVEF [CLINT1], the protein stability index came to 3.26 ± 0.23 (treatment: DMSO) and 3.83 ± 0.28 (treatment: MLN4924 1 uM, 8 h).

Regarding LQGSLFGLAGLLPASYTAPIMSGQ [SLC29A1], the protein stability index amounted to 2.44 ± 0.28 (treatment: DMSO) and 2.27 ± 0.3 (treatment: MLN4924 1 uM, 8 h).

For GAAAPATPTPVAAALDACSGNDPF [SNAP91], the protein stability index turned out to be 5.18 ± 0.34 (treatment: DMSO) and 5.15 ± 0.24 (treatment: MLN4924 1 uM, 8 h).

Consider EDFLLKKPIVPTDGKRVIVVFHCE [CDC25A], for which the protein stability index reads like this: (treatment: DMSO) 2.37 ± 0.55; (treatment: MLN4924 1 uM, 8 h) 2.25 ± 0.64.

As to IQPSSEGLGPTSEPFPSSDDSPRS [SPAG8], the protein stability index came out at 5.41 ± 0.21 (treatment: DMSO) and 5.35 ± 0.15 (treatment: MLN4924 1 uM, 8 h).

In turn, LPQTPHLEEDLKEVLRSEAGIELI [MYBL2] gave a protein stability index (treatment: DMSO) of 4.2 ± 0.44 and a protein stability index (treatment: MLN4924 1 uM, 8 h) of 4.37 ± 0.17.

On to SRLVAGEYLSFFDFSGLTLDGALR [PSD2], for which the protein stability index runs as follows: (treatment: DMSO) 1.93 ± 0.094; (treatment: MLN4924 1 uM, 8 h) 2.3 ± 0.29.

As for YLNHVRAASPQDLAGGYTSSLACH [MNAT1], the protein stability index is, setting by setting: (treatment: DMSO) 2.85 ± 0.39; (treatment: MLN4924 1 uM, 8 h) 2.95 ± 0.34.

Consider DQDYLHSLGKARTAQVQKDARIGE [FLOT1], for which the protein stability index (treatment: DMSO) was determined as 4.86 ± 0.16 and the protein stability index (treatment: MLN4924 1 uM, 8 h) is 4.74 ± 0.19.

Consider VSTFLSGVMLTWPDGLMYQKFRNQ [TMEM120A], for which the protein stability index is, setting by setting: (treatment: DMSO) 2.85 ± 0.82; (treatment: MLN4924 1 uM, 8 h) 2.36 ± 0.54.

On to DSETLDLEEAEGAVGYQPEYSKFC [NFE2L1], for which the protein stability index (treatment: DMSO) amounted to 5.13 ± 0.34 and the protein stability index (treatment: MLN4924 1 uM, 8 h) is 5.01 ± 0.5.

Take VFDCLKDGMRNKETLEGREKAFIA [MED27]: the protein stability index was 3.88 ± 0.28 (treatment: DMSO) and 3.91 ± 0.25 (treatment: MLN4924 1 uM, 8 h).

On to SDVVGRRSSLLACILLSALGYLLL [MFSD9], for which the protein stability index was found to be 3.22 ± 0.32 (treatment: DMSO) and 3.19 ± 0.26 (treatment: MLN4924 1 uM, 8 h).

IPMHIDHDRNMDWVSTQLQATCNV [FADS1]: the protein stability index was found to be 3 ± 0.28 (treatment: DMSO) and 3.24 ± 0.27 (treatment: MLN4924 1 uM, 8 h).

For the sequence GIFEESFIEERRQGLEQFINKIAG [SNX12], the protein stability index (treatment: DMSO) is 2.98 ± 0.59 and the protein stability index (treatment: MLN4924 1 uM, 8 h) came to 2.84 ± 0.32.

Consider GMDPERLKAFNMFVRLFVDENLDR [NOL4L], for which the protein stability index runs as follows: (treatment: DMSO) 2.1 ± 0.42; (treatment: MLN4924 1 uM, 8 h) 2.39 ± 0.37.

Sequence RQVNIRTANCTTANQNCVNKSKLL [KCNA1] returned a protein stability index (treatment: DMSO) of 3.51 ± 0.12 and a protein stability index (treatment: MLN4924 1 uM, 8 h) of 3.48 ± 0.28.
